This is an account of results in patent US20250129329A1, “CULTURE MEDIUM FOR HEPATOMA ORGANOID CULTURE, HEPATOMA ORGANOID CULTURE METHOD, AND APPLICATION THEREOF” (PRECEDO PHARMACEUTICALS CO., LTD, priority 2021, published 2025).

The test system of the assay is hepatoma organoids isolated from liver cancer tissue. Put plainly: Effects of medium additives on proliferation of hepatoma organoids (Example 1). The assay is classed as cell-based, human. Conditions: additive in basic medium at the final concentration; organoid diameters after 7 days compared with Basic Medium. The procedure:
First, a basic medium containing initial medium was prepared. […] In this embodiment, the formulation of the basic medium is: DMEM/F12 medium (purchased from Corning)+100 μg/mL Primocin (purchased from InvivoGen, 0.2% (v/v), commercial product has a concentration of 50 mg/ml).
Different types of additives (see Table 1) were added to the basic medium to prepare culture mediums for hepatoma organoid with different components.
Tissue samples (intraoperative) of liver cancer solid tumor were obtained from patients by professional medical practitioner of professional medical institutions, and all patients have signed the informed consent. Intraoperative samples having the size of 0.25 cm3 were stored and transported using commercial tissue preservation solution (manufacturer: Miltenyi Biotec).
• 3.1. Tissue samples were transferred from the ultra-clean workbench to a culture dish, and the tissue with blood was removed. […] The completion of digestion was determined via observation every 30 minutes, based on the existing of visible particles or not. • 3.4. […]
The primary liver cancer cells obtained in the above steps were resuspended with pre-cooled DMEM/F12 and counted. […] After 7 days, the cultured organoids were photographed and the diameters of the organoids were measured and compiled, so as to compare the promoting effects of various factors on the proliferation of hepatoma organoids. […]

B1: R-spondin1: R-spondin family protein, medium additive, supplier R&D (protein, UniProt Q2MKA7 21-263, looked up)
R-spondin-1: SRGIKGKRQRRISAEGSQACAKGCELCSEVNGCLKCSPKLFILLERNDIRQVGVCLPSCPPGYFDARNPDMNKCIKCKIEHCEACFSHNFCTKCKEGLYLHKGRCYPACPEGSSAANGTMECSSPAQCEMSEWSPWGPCSKKQQLCGFRRGSEERTRRVLHAPVGDHAACSDTKETRRCTVRRVPCPEGQKRRKGGQGRRENANRNLARKESKEAGAGSRRRKGQQQQQQQGTVGPLTSAGPA
For B1, the “Level of promoting proliferation” value was “+”.
